Source: patent US20210347913A1 (published 2021)
Substitutions are numbered along the chain they refer to. Blank lines part the entries; values can stand above or below the binder they belong to.

Tests used:
[1] = molecular target: T1, PTK7 on PTK7 positive cell line SaOS-2 (osteosarcoma) (UniProt Q13308 31-1070); assay: FACS binding SaOS-2
T1 chain: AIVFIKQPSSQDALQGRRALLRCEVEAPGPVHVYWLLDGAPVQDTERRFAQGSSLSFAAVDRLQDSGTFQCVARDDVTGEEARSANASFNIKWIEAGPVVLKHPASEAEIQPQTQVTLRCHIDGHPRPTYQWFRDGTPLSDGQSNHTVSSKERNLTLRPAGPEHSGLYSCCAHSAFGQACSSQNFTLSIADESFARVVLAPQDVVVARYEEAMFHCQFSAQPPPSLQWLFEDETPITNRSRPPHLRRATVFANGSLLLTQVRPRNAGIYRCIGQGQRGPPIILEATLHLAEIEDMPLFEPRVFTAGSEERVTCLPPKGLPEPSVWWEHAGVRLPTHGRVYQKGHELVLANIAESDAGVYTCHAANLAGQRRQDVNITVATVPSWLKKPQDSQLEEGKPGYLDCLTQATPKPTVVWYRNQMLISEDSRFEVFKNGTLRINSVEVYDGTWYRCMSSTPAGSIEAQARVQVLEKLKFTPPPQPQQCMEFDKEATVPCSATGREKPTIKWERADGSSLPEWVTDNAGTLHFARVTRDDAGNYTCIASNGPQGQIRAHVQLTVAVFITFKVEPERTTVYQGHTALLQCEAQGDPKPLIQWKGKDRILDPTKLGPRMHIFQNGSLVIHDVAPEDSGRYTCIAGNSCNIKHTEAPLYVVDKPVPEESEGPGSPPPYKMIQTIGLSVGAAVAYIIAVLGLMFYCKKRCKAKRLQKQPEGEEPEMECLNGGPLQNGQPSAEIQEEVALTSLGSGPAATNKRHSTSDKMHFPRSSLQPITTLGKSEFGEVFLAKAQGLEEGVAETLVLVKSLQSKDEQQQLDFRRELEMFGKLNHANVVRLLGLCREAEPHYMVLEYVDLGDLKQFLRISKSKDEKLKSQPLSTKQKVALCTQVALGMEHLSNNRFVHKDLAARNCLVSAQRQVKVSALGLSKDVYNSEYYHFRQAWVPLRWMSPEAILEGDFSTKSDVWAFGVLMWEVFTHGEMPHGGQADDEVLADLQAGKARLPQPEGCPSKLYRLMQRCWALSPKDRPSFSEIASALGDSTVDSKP

[2] = molecular target: T1, PTK7 on PTK7 positive cell line SaOS-2 …; assay: FACS binding SaOS-2; -MMP14
[3] = molecular target: T1, PTK7 on PTK7 positive cell line SaOS-2 …; assay: FACS binding SaOS-2; +MMP14

- EC50 [1]: 16.7 nM
- EC50 [2]: 20.8 nM
- EC50 [3]: 0.41 nM
B1: 181 M4 (antibody)
chain: QGCTFPNTTMQRTFCGSSGGSGGSGGSGGGPLGLAGGSSGQVQLVESGGGVVQPGRSLRLSCAASGFTFSSYGMHWVRQAPGKGLEWVAVIWDDGSNKYYVDSVKGRFTISRDNSKNTLYLQMNSLRAEDTAVYYCARDDYYGSGSFNSYYGTDVWGQGTTVTVSSGGGGSGGGGSGGGGSEIVLTQSPATLSLSPGERATLSCRASQSVSIYLAWYQQKPGQAPRLLIYDASNRATGIPARFSGSGSGTDFTLTISSLEPEDFAVYYCQQRSNWPPFTFGPGTKVDIKSAAAFVPVFLPAKPTTTPAPRPPTPAPTIASQPLSLRPEACRPAAGGAVHTRGLDFACDIYIWAPLAGTCGVLLLSLVITLYCNHRNRSKRSRLLHSDYMNMTPRRPGPTRKHYQPYAPPRDFAAYRSRVKFSRSADAPAYQQGQNQLYNELNLGRREEYDVLDKRRGRDPEMGGKPRRKNPQEGLYNELQKDKMAEAYSEIGMKGERRRGKGHDGLYQGLSTATKDTYDALHMQALPPR

- EC50 [1]: 101 nM
- EC50 [2]: 96.9 nM
- EC50 [3]: 0.8 nM
B2: 181 M8 (antibody)
chain: QGWCTIPSSMSIRLCGSSGGSGGSGGSGGGPLGLAGGSSGQVQLVESGGGVVQPGRSLRLSCAASGFTFSSYGMHWVRQAPGKGLEWVAVIWDDGSNKYYVDSVKGRFTISRDNSKNTLYLQMNSLRAEDTAVYYCARDDYYGSGSFNSYYGTDVWGQGTTVTVSSGGGGSGGGGSGGGGSEIVLTQSPATLSLSPGERATLSCRASQSVSIYLAWYQQKPGQAPRLLIYDASNRATGIPARFSGSGSGTDFTLTISSLEPEDFAVYYCQQRSNWPPFTFGPGTKVDIKSAAAFVPVFLPAKPTTTPAPRPPTPAPTIASQPLSLRPEACRPAAGGAVHTRGLDFACDIYIWAPLAGTCGVLLLSLVITLYCNHRNRSKRSRLLHSDYMNMTPRRPGPTRKHYQPYAPPRDFAAYRSRVKFSRSADAPAYQQGQNQLYNELNLGRREEYDVLDKRRGRDPEMGGKPRRKNPQEGLYNELQKDKMAEAYSEIGMKGERRRGKGHDGLYQGLSTATKDTYDALHMQALPPR

- EC50 [1]: 225 nM
- EC50 [2]: 406 nM
- EC50 [3]: 0.95 nM
B3: 181 M3 (antibody)
chain: B1 chain with F5M, N7P, T8S, T9P, M10R, Q11S, R12K, T13V, F14I
